According to the RNAGym collection of RNA variant scans (doi:10.1073/pnas.2313332121):

B1: TPR t1 (parent)
chain: GACCAAUCUGCCCUCAGAGCUCGAGAACAUCUUCGGAUGCAGAGGAGGCAGGCUUCGGUGGCGCGAUAGCGCCAACGUCCUCAACCUCCAAUGCAUCCCACCACAUGAUGAUGCCUGAAGAGCCUUGGUUUUUUG

Variants of: B1
Assay: polymerase ribozyme fitness, log enrichment relative to wild type (log ratio); higher = more active; in vitro selection for triplet polymerase activity
Procedure, shortened: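 Mutant libraries were PCR-built and transcribed for each subunit of a heterodimeric triplet polymerase ribozyme and selected for one round in triplicate at −7 °C, frozen, before gel excision of extended constructs and streptavidin-bead capture. Input and output libraries were Illumina-sequenced, keeping genotypes with ≥10 input reads and ≥1 read per output. Fitness is a logarithmic ratio of genotype to wild-type enrichment, in base 2, using inverse-variance-weighted replicate averages.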

Variant | polymerase ribozyme fitness (log ratio)
C62U C89U | -0.519
C34A G48U G61C C72G C94G A119G U133C | -3.16
C40A U55A G69C C73A A84C G120A | -1.3
C56U C79A C101U | -1.23
A5G U54C G69U A118G U129A | -1.19
A100U U125G | -0.739
G45U G117C | -4.15
A26U G47U C64A C85U G107C A108G G110C | -6.9
A6C C53G | -0.863
C56U A100C | -1.29
G48C C49U U59A | -1.34
A50U U106A | -0.951
A90U G117C | -1.43
A5C C28U G57C | -3.47
C12A U21A C53A G71U C98U | -4.86
G60A C85A | -1.07
C12A C40A C72A U130A | -2.02
G48U A95U A105U U125A | -4.37
G127A U130C | -0.727
C22G C80U | -4.33
C15G G44C G47A G69U | -3.06
C86G C88U A105G | -4.95
U7C A16C G52C G110A U130A | -5.74
U32A U33C G77C C102G G107A A121G | -7.93

Variant | polymerase ribozyme fitness (log ratio)
U33A G36C C72U | -4.02
A46G C70G | -4.8
A105C U125G | -3.17
G52U G77U A90U A121U U130A | -0.805
A5G C13U A103U | -4.92
U9A C62G C79G | -4.02
G47U A66U U125G | -3.75
U55G G60U A103U | -5.31
A16G C49A C88A C99A C102U C114U | -4.49
C20A C40A C72U C73U | -4.3
C53G C64U G110U | -3.95
A5G C11G A16G G63U A74C G77U A95C G117U | -2.32
U7C C8A A27C C97U | -2.64
C3U G48C C82G | -1.66
U14A U54G A84U C98A A103U G117A C123G G128A | -6.1
G48A C86U | -0.5
U7C A37U C73A | -0.516
C12G C89U | -0.711
C34G C53U C73U G113C C114G | -8.55
C8A C85U | -0.102
C34U A50U | -3.8
C4A C73G | -2.98
U59C G60C | -0.854
G19U G48U C79A C85A G120C U130C | -5.41

Variant | polymerase ribozyme fitness (log ratio)
C4G G61C G69U U112A | -1.95
C13G G39U C115U | -2.63
U7C A41U C123G U131A | 0.484
U87G U92A G110A | -4.75
G63C C101U | -1.5
C73G G128A | -2.13
G10A G44A G47A G61C | -3.22
C11U G120U | -0.185
C40A G48C G61A | -0.933
C73A U92G | -2.07
C11U A18U C20U C56U C101A | -3.06
C53U C99G A119G | -7.41
G45U G122A | -1.14
A24G G69U A100U | -1.09
A24G A111G | -2.06
G44U C49A G110A | -3.22
A50C A90C U133G | -1.46
C53G C70G C104U C114U G120U C123G C124A | -6.46
G61C U109A | -4.34
C49G U59G C62G C72U | -4.88
A66U C72U C115G | -2.47
C4U G10C C20A G48U A119G | -3.45
C86G U112A G117U G120A U126A | -5.82
G17C A46G C124A | -1.43

Variant | polymerase ribozyme fitness (log ratio)
G63A U131G | -1.53
C11U C12G C15U C28G U38A C56U G69C G120A | -7.02
C12A U130A | -2.22
G42C C56U U81A C124G U132A | -0.851
G17A C79U U106A A111C | -4.21
G51U C82U | -1.77
G47U C101A C104U | -2.34
C13U A37C U55A | -0.3
A46U G120U | -0.451
C49U C102G C104A C124A U130A | -4.4
A41G G61U C94U | -0.449
C72U A84G G117C | -4.48
C72G G122A | -1
U7G G10A A41G C79A C80A C115A | -3.95
G47U G58A A83C | -2.55
C72A G93C C102A U106A G110A U125A G127A | -6.51
C62A C85G | -2.62
U54C U87A A95U U130A | -2.56
C49U G57U C79U C101A G128U | -4.04
G45U C72G | -1.73
C15A A16U C88A | -3.46
C13G C70A | -2.2
C13U A121G | 2.04
C8U G58A G93U G117U G128C | -5.28

Variant | polymerase ribozyme fitness (log ratio)
C70U C114A G128U | -4.2
C64U G107A | -3.01
C76U G127A | -1.52
C62U A121G | 2.41
C20A A41C C82A | -4.5
U9C C15A G44U G60C A91U A121G | -1.08
C40G C82U U106A | -1.73
G48U C49A C89G | -3.48
C13U U55G C72U | -0.221
A37G C76G G113A | -1.57
A90U C97U | -2.38
C70U C88A C115U | -3.07
A41C C53U G122A | -2.04
C8U U14A C72A C73U | -2.99
A108G G113A | -2.47
G39U C62A C86A | -5.05
A83U C114A | -1.1
A66U A84U C89U U112G | -2.3
C13U G44A C79G G93U | -4.32
U21C U55G U59G G71U C115G | -4.57
G10C C85U | -1.64
G61A C64A | -6.82
A24G C53U | -2.07
G58A C76U | -0.743

Variant | polymerase ribozyme fitness (log ratio)
A43U A74C | -1.55
A16C C79U U87A C124U | -0.106
A26G C94G A105C C123G | -5.27
G44C C64U A111G U133A | -0.585
G42A G45A A50G G113U U129A G135A | -3.94
C3G U9C C13A C70G C89A U96C C101A G117C | -5.88
C11G C40U U87G C115U | -0.239
C4U G69U | -0.399
A5C G45A A83C U87G G120A U131A | -0.712
G36U C73U G107C | -6.17
A5G C53A | 0.65
C12U C13U A43G G61A | -2.1
C31G G39U C72A U106A G120U | -6.88
U9G A16U C82U C88U A95U U130G | -0.874
G60U G93C | -0.936
U14G G36U G42C G61A G113A U132A | -5.95
C13A G60A | -1.95
G17U C20G G52A G113A A119G | -2.03
C11G C12G G48U G58U G60U C85A U106G | -4.78
C49U C82A | -0.514
A16G C73A A90C | -3.02
G19C C70U | -2.55
C8U C72G | 0.517
G25U A37U C40U G44U G47C C64A U106G U112A | -6.12

Variant | polymerase ribozyme fitness (log ratio)
G48A C104U | -1.25
A16G | -0.761
C72A C82G A91C G93C | -3.15
G48U G61U U112C | 1.56
C88G G107U A111C A121U U125A | -3.56
C3A C53G C64U A118G C123U | -1.11
G39A C64U | 0.0887
A100C C101G C104A C124A | -3.18
C40U A46C C64U | -2.21
G47A U54C C97G | -5.9
G63A U133A | -0.918
G51A C79G C80G A84C C124G G128C | -7.76
A5G A29C | -1.82
C62U C64U | -0.305
G19A C49U G113U | -2.65
C22U C70U C88G | -6.53
C3G U55C C72U G93A | -4.63
C12G C22U U32G C102A A111U G122U | -7.04
G42A C72A C104A U130C | -5.17
U81A U112G | -0.661
A95C U106A C124U | 1.29
A37C G44A C53U C104U | -1.64
G61C C114U | -4
